From article PMC5507294 (PLoS ONE, 2017)

Key:
[1] = molecular target: T1, PP2A catalytic subunit (PP2Ac) (human (endogenous in HECs), UniProt P67775 1-309); experiment: co-IP; GSK-3β, PR55α or PP2Ac immunoprecipitated (antibody with protein A or protein G agarose, 90 min at 4°C) from RIPA lysates of HECs with equal amounts of protein; immunoblot for β-catenin; cells 3 d in KGM or in CR culture (F+Y+J2); conditions: partners not purified
T1 construct: catalytic (C) subunit of protein phosphatase 2A, endogenous in primary human ectocervical cells (HECs); also called PP2A C subunit; source: endogenous, lysate of primary human ectocervical cells (HECs) in RIPA buffer

[2] = molecular target: T2, PR55α, the α isoform of the 55 kDa B-type regulatory subunit of PP2A (human (endogenous in HECs), UniProt P63151 1-447); experiment: as above; conditions: partners not purified
T2 construct: PR55α, α isoform of the 55 kDa B-type regulatory subunit of protein phosphatase 2A, endogenous in primary human ectocervical cells (HECs); also called PP2A regulatory subunit; source: endogenous, lysate of primary human ectocervical cells (HECs) in RIPA buffer
T2 sequence (looked up): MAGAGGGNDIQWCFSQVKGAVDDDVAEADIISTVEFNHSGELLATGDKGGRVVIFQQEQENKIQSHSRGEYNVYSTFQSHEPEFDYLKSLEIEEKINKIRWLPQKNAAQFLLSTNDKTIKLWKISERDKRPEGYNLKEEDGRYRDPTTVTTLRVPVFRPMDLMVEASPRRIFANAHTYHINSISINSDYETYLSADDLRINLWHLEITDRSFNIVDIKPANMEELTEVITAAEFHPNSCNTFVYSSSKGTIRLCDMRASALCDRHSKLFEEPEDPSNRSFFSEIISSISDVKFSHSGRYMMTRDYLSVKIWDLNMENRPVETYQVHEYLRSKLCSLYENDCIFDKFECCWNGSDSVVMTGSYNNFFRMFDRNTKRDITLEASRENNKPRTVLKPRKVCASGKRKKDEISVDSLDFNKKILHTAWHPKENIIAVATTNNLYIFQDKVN

T1 sequence (P67775 whole entry): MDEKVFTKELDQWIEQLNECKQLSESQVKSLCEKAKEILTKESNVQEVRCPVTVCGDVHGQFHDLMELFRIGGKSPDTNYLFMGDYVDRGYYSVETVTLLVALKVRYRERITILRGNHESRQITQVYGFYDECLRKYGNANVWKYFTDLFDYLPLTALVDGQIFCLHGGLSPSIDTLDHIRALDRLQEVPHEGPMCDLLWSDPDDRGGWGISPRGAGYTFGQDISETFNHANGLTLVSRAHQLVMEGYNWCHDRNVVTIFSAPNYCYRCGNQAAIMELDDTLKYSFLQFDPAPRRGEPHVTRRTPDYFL

B1: β-catenin (natural protein, human (endogenous in HECs), UniProt P35222 1-781, looked up)
chain: MATQADLMELDMAMEPDRKAAVSHWQQQSYLDSGIHSGATTTAPSLSGKGNPEEEDVDTSQVLYEWEQGFSQSFTQEQVADIDGQYAMTRAQRVRAAMFPETLDEGMQIPSTQFDAAHPTNVQRLAEPSQMLKHAVVNLINYQDDAELATRAIPELTKLLNDEDQVVVNKAAVMVHQLSKKEASRHAIMRSPQMVSAIVRTMQNTNDVETARCTAGTLHNLSHHREGLLAIFKSGGIPALVKMLGSPVDSVLFYAITTLHNLLLHQEGAKMAVRLAGGLQKMVALLNKTNVKFLAITTDCLQILAYGNQESKLIILASGGPQALVNIMRTYTYEKLLWTTSRVLKVLSVCSSNKPAIVEAGGMQALGLHLTDPSQRLVQNCLWTLRNLSDAATKQEGMEGLLGTLVQLLGSDDINVVTCAAGILSNLTCNNYKNKMMVCQVGGIEALVRTVLRAGDREDITEPAICALRHLTSRHQEAEMAQNAVRLHYGLPVVVKLLHPPSHWPLIKATVGLIRNLALCPANHAPLREQGAIPRLVQLLVRAHQDTQRRTSMGGTQQQFVEGVRMEEIVEGCTGALHILARDVHNRIVIRGLNTIPLFVQLLYSPIENIQRVAAGVLCELAQDKEAAEAIEAEGATAPLTELLHSRNEGVATYAAAVLFRMSEDKPQDYKKRLSVELTSSLFRTEPMAWNETADLGLDIGAQGEPLGYRQDDPSYRSFHSGGYGQDALGMDPMMEHEMGGHHPGADYPVDGLPDLGHAQDLMDGLPPGDSNQLAWFDTDL
notes: β-catenin, endogenous in primary human ectocervical cells (HECs); Endogenous protein; its phosphorylation state in the co-precipitate was not determined; source: endogenous, lysate of primary human ectocervical cells (HECs) in RIPA buffer
fold more co-precipitated in CR cells than in KGM [1]: 3.8 fold
fold more co-precipitated in CR cells than in KGM [2]: 25 fold
